What was measured:
Details in all cases: 100 mM Tris-HCl pH 8, 30°C, 1.5 µM PrCl3, 1.5 µM PQQ, 1 mM PES, 150 µM DCPIP
purified protein [1] = substrate: CC[C@@H](C)O; assay: purified protein
purified protein [2] = substrate: CC[C@H](C)O; assay: purified protein
[3] = substrate: CO; assay: dye-linked PES/DCPIP colorimetric assay, Michaelis-Menten fit; type: biochemical, Pseudomonas putida

B1: PedH (Pseudomonas putida KT2440) (protein)
chain: AVSNEEILQDPKNPQQIVTNGLGVQGQRYSPLDLLNVNNVKELRPVWAFSFGGEKQRGQQAQPLIKDGVMYLTGSYSRVFAVDARTGKKLWQYDARLPDDIRPCCDVINRGVALYGNLVFFGTLDAKLVALNKDTGKVVWSKKVADHKEGYSISAAPMIVNGKLITGVAGGEFGVVGKIQAYNPENGELLWMRPTVEGHMGYVYKDGKAIENGISGGEAGKTWPGDLWKTGGAAPWLGGYYDPETNLILFGTGNPAPWNSHLRPGDNLYSSSRLALNPDDGTIKWHFQSTPHDGWDFDGVNELISFNYKDGGKEVKAAATADRNGFFYVLDRTNGKFIRGFPFVDKITWATGLDKDGRPIYNDASRPGAPGSEAKGSSVFVAPAFLGAKNWMPMAYNKDTGLFYVPSNEWGMDIWNEGIAYKKGAAFLGAGFTIKPLNEDYIGVLRAIDPVSGKEVWRHKNYAPLWGGVLTTKGNLVFTGTPEGFLQAFNAKTGDKVWEFQTGSGVLGSPVTWEMDGEQYVSVVSGWGGAVPLWGGEVAKRVKDFNQGGMLWTFKLPKQLQQTASVKP
notes: recombinant, pET-28a in E. coli BL21(DE3), purified on Ni-NTA; PQQ and Pr3+ added
Km (purified protein [1]): 940 ± 130 µM | kcat (purified protein [1]): 0.42 ± 0.01 s⁻¹ | kcat/Km (purified protein [1]): 447 M⁻¹ s⁻¹ | Km (purified protein [2]): 1070 ± 180 µM | kcat (purified protein [2]): 0.43 ± 0.01 s⁻¹ | kcat/Km (purified protein [2]): 402 M⁻¹ s⁻¹ | Km [3]: 1100 µM | kcat [3]: 0.15 s⁻¹
